IntAct's records for PubMed 12713445

Columns and labels:
dlg2_human DLG2 = dlg2_human DLG2 (UniProt Q15700)
dlg3_human DLG3 = dlg3_human DLG3 (UniProt Q92796)
Chain of UniProt Q92796 (Q92796 whole entry): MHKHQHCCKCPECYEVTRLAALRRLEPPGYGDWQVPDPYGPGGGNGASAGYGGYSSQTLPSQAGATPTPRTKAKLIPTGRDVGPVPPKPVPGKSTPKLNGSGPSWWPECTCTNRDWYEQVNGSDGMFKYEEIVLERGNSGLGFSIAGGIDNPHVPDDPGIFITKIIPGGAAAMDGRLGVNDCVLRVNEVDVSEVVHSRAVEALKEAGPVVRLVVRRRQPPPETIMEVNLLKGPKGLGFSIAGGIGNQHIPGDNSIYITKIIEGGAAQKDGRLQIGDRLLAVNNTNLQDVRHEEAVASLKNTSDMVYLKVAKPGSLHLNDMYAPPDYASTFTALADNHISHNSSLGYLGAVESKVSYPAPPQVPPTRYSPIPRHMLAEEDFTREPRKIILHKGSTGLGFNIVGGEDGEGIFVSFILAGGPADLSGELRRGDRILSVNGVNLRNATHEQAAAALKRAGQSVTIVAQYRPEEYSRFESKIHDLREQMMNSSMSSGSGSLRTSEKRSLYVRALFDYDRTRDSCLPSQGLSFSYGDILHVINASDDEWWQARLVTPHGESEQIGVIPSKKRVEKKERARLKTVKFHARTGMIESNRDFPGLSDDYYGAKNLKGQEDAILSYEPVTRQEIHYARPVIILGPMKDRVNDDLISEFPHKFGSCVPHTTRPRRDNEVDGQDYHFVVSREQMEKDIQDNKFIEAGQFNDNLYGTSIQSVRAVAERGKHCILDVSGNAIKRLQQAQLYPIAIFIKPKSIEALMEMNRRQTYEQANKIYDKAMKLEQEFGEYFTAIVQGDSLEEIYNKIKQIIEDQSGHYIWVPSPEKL

Chain of UniProt Q15700 (Q15700 whole entry, looked up): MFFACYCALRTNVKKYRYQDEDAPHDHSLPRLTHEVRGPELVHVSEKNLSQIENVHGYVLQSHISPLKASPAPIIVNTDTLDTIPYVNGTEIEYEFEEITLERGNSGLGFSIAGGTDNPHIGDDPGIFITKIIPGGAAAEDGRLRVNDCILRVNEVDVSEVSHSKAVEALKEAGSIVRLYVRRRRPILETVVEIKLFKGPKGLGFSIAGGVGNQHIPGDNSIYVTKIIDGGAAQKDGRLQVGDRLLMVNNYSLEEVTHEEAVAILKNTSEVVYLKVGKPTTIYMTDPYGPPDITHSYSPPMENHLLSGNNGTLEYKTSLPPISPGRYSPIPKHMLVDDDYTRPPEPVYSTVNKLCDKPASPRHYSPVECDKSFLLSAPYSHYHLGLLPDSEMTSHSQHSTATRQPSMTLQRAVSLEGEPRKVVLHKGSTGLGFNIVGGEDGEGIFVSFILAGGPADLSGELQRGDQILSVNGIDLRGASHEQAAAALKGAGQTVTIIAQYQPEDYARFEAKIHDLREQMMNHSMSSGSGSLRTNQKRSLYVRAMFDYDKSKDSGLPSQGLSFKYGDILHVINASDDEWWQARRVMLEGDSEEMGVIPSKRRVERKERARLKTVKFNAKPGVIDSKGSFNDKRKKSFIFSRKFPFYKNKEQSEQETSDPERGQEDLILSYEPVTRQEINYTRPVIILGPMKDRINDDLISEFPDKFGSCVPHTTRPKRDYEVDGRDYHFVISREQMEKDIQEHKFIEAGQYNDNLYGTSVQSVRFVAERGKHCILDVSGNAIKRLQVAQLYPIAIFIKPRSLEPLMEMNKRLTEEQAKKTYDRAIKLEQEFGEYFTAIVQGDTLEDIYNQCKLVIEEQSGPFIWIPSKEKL

effect of a mutation on the interaction (dlg2_human DLG2): disrupting interaction strength
effect of a mutation on the interaction (dlg3_human DLG3): disrupting interaction strength
Substance: Low-density lipoprotein receptor-related protein 2 (Homo sapiens), P98164 S4653V;V4655S
